Measurements reported in article PMC2878558 (The Journal of Biological Chemistry, 2010).

B1: VAMP7(1–118) (domain or fragment, human, UniProt P51809 1-118, looked up)
chain: MAILFAVVARGTTILAKHAWCGGNFLEVTEQILAKIPSENNKLTYSHGNYLFHYICQDRIVYLCITDDDFERSRAFNFLNEIKKRFQTTYGSRAQTALPYAMNSEFSSVLAAQLKHHS
B2: VAMP7(119–180) (domain or fragment, human, UniProt P51809 119-180, looked up)
chain: ENKGLDKVMETQAQVDELKGIMVRNIDLVAQRGERLELLIDKTENLVDSSVTFKTTSRNLAR

Assays:
SEC-MALS = target: the molecule itself; experiment: SEC-MALS
VAMP7(1–118) = target: B1; experiment: NMR titration

| binding result (VAMP7(1–118)) | Binder | stoichiometry N (SEC-MALS) |
| --- | --- | --- |
| – | B1 | 2 |
| binds | B2 | – |
